Results: PMC5923425, “Structural analysis of human ARS2 as a platform for co-transcriptional RNA sorting” (Nature Communications, 2018)

B3: full-length NCBP3 (residues 1–620) (natural protein, human, UniProt Q53F19-1 1-620, looked up)
chain: MAAVRGLRVSVKAEAPAGPALGLPSPEAESGVDRGEPEPMEVEEGELEIVPVRRSLKELIPDTSRRYENKAGSFITGIDVTSKEAIEKKEQRAKRFHFRSEVNLAQRNVALDRDMMKKAIPKVRLETIYICGVDEMSTQDVFSYFKEYPPAHIEWLDDTSCNVVWLDEMTATRALINMSSLPAQDKIRSRDASEDKSAEKRKKDKQEDSSDDDEAEEGEVEDENSSDVELDTLSQVEEESLLRNDLRPANKLAKGNRLFMRFATKDDKKELGAARRSQYYMKYGNPNYGGMKGILSNSWKRRYHSRRIQRDVIKKRALIGDDVGLTSYKHRHSGLVNVPEEPIEEEEEEEEEEEEEEEEDQDMDADDRVVVEYHEELPALKQPRERSASRRSSASSSDSDEMDYDLELKMISTPSPKKSMKMTMYADEVESQLKNIRNSMRADSVSSSNIKNRIGNKLPPEKFADVRHLLDEKRQHSRPRPPVSSTKSDIRQRLGKRPHSPEKAFSSNPVVRREPSSDVHSRLGVPRQDSKGLYADTREKKSGNLWTRLGSAPKTKEKNTKKVDHRAPGAEEDDSELQRAWGALIKEKEQSRQKKSRLDNLPSLQIEVSRESSSGSEAES
notes: human NCBP3, full length, residues 1-620, cloned into pFASTBac HTb; also called NCBP3^1–620; source: High Five insect cells, purified; not shown: His6, N-terminal, cleaved
B5: ARS2^171–270+408–763 (domain or fragment, human)
chain 1: RYNDYKLDFRRQQMQDFFLAHKDEEWFRSKYHPDEVGKRRQEARGALQNRLRVFLSLMETGWFDNLLLDIDKADAIVKMLDAAVIKMEGGTENDLRILEQ
chain 2: GLECKPRPLHKTCSLFMRNIAPNISRAEIISLCKRYPGFMRVALSEPQPERRFFRRGWVTFDRSVNIKEICWNLQNIRLRECELSPGVNRDLTRRVRNINGITQHKQIVRNDIKLAAKLIHTLDDRTQLWASEPGTPPLPTSLPSQNPILKNITDYLIEEVSAEEEELLGSSGGAPPEEPPKEGNPAEINVERDEKLIKVLDKLLLYLRIVHSLDYYNTCEYPNEDEMPNRCGIIHVRGPMPPNRISHGEVLEWQKTFEEKLTPLLSVRESLSEEEAQKMGRKDPEQEVEKFVTSNTQELGKDKWLCPLSGKKFKGPEFVRKHIFNKHAEKIEEVKKEVAFFNNFLTDAKRPALPE
notes: human ARS2 (SRRT) isoform-e, residues 171-270, cloned into pETM11; human ARS2 (SRRT) isoform-e, residues 408-763, cloned for co-expression into pDUET and pET15b; Two co-expressed fragments of one protein that fold into one core; also called crystallised core; source: E. coli Rosetta 2, two fragments co-expressed, purified; not shown: His6, N-terminal, cleaved

How the values were obtained:
[1] = molecular target: CBP20 (NCBP2) (endogenous) (UniProt P52298); test: EGFP pull down, LC–MS/MS (AP–MS, TMT labelled); conditions: HEK 293T/17 cells; three independent affinity purifications per bait, except ARS2 wt in b (one pull down); read off a plot
CBP20 (NCBP2) (endogenous), sequence (P52298 whole entry): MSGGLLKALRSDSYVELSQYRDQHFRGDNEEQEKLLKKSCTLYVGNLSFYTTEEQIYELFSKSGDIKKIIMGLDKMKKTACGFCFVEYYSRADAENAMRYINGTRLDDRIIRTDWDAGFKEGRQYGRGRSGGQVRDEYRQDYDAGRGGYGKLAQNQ

[2] = molecular target: CBP80 (NCBP1) (endogenous) (UniProt Q09161); test: EGFP pull down, LC–MS/MS (AP–MS, TMT labelled); conditions: HEK 293T/17 cells; three independent affinity purifications per bait, except ARS2 wt in b (one pull down); read off a plot
CBP80 (NCBP1) (endogenous), sequence (Q09161 whole entry): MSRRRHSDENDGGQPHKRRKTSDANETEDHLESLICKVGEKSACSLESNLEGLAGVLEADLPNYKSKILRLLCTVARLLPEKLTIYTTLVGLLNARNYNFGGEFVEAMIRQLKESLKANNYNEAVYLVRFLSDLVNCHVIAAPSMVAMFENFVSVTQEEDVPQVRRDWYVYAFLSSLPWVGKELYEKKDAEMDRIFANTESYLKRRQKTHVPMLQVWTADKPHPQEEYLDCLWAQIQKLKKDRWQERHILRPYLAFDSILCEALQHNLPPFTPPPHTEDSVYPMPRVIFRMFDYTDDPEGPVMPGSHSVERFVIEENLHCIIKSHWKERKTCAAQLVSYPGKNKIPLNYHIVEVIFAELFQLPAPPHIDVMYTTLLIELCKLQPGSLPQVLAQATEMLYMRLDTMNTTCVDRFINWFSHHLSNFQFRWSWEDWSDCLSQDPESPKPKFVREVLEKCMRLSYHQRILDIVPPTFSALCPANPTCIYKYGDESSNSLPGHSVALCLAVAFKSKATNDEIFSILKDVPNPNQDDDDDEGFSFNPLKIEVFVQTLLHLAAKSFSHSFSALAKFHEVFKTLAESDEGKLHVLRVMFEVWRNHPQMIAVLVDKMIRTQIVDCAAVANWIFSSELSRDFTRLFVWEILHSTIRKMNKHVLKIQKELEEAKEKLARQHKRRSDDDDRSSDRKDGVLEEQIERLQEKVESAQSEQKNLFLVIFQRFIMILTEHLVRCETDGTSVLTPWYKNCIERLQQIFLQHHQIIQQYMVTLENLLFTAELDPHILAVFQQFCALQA

[3] = molecular target: PHAX (endogenous) (UniProt Q9H814); test: EGFP pull down, LC–MS/MS (AP–MS, TMT labelled); conditions: HEK 293T/17 cells; three independent affinity purifications per bait, except ARS2 wt in b (one pull down); read off a plot
PHAX (endogenous), sequence (Q9H814 whole entry): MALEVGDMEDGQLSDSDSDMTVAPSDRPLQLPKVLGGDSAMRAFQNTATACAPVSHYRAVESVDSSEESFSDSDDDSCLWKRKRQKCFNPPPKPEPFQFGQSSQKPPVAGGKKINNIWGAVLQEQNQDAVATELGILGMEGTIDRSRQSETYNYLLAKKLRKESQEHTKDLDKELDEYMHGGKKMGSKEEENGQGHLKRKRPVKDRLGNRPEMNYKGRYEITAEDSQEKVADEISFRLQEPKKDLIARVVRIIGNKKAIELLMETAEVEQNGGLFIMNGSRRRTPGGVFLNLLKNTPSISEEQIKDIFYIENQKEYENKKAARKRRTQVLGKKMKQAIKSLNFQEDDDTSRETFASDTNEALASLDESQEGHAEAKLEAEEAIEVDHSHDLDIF

[4] = molecular target: T1, ARS2^147–270+494–763 (human, UniProt Q9BXP5-4 147-270; Q9BXP5-4 494-763); test: ITC; MicroCal ITC200, 25 °C, ARS2 construct with FARB; not marked high salt: 20 mM HEPES, 120 mM, 2 mM TCEP pH 7.8; single-site fit; conditions: both partners purified
T1 construct: human ARS2 (SRRT) isoform-e, residues 147-270, cloned into pETM11; human ARS2 (SRRT) isoform-e, residues 494-763 (lacks the RRM domain), cloned for co-expression into pDUET and pET15b; Lacks the unstructured regions and the RRM domain; source: E. coli Rosetta 2, two fragments co-expressed, purified; not shown: His6, N-terminal, cleaved
T1 sequence (looked up) 1: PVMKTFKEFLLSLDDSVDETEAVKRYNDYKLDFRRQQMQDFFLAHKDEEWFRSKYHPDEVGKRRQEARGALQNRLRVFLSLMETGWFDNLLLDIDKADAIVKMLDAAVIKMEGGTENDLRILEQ
T1 sequence (looked up) 2: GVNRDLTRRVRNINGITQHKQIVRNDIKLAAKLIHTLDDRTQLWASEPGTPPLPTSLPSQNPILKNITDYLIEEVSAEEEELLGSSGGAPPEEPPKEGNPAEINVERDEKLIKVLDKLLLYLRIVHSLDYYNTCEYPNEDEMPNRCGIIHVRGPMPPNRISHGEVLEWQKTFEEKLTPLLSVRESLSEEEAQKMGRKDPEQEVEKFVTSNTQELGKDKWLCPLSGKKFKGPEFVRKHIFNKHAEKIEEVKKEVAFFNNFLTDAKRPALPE

[5] = molecular target: T2, ARS2^147–871 (human, UniProt Q9BXP5-4 147-871); test: ITC; MicroCal ITC200, 25 °C, ARS2 constructs with FLASH peptides; high salt (HS): buffer containing 250 mM NaCl; single-site fit; which partner was injected is not told; conditions: both partners purified
T2 construct: human ARS2 (SRRT) isoform-e, 871 residues, residues 147-871, cloned into pETM11; also called hARS2; SRRT; source: E. coli Rosetta 2, purified (Ni-Sepharose, TEV cleavage, HiTrap Q, heparin if necessary, SEC); not shown: His6, N-terminal, cleaved
T2 sequence (looked up): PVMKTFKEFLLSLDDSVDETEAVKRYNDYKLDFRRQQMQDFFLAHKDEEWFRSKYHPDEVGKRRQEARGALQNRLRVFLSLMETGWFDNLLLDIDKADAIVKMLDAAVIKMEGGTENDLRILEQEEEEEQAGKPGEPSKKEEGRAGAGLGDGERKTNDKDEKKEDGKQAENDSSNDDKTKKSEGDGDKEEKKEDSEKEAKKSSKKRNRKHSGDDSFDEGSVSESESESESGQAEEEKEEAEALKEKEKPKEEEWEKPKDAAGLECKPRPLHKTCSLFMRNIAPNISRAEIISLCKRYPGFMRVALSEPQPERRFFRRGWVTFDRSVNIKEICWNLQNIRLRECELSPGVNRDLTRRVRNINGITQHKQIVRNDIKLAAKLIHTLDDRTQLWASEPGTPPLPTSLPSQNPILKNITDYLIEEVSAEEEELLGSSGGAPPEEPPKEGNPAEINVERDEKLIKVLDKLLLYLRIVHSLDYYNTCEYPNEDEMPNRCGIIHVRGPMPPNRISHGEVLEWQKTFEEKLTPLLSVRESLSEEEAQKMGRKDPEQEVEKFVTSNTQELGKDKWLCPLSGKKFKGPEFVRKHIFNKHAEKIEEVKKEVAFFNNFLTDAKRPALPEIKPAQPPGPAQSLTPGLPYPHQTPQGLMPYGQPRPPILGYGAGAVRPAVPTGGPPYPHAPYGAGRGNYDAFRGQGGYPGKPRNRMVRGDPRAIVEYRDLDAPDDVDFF

[6] = molecular target: B5; test: as above; conditions: both partners purified
[7] = molecular target: T3, GST-tagged ARS2^147–871 (human, UniProt Q9BXP5-4 147-871); test: pull-down; GST-tagged ARS2 147–871 on glutathione sepharose, NCBP3 constructs added, in the absence of the cap analogue; conditions: both partners purified
T3 construct: human ARS2 (SRRT) isoform-e, residues 147-871; The cloning of the GST fusion is not described; also called GST-ARS2; source: E. coli Rosetta 2 (said of all constructs but full-length NCBP3); held on glutathione sepharose
T3 sequence (looked up): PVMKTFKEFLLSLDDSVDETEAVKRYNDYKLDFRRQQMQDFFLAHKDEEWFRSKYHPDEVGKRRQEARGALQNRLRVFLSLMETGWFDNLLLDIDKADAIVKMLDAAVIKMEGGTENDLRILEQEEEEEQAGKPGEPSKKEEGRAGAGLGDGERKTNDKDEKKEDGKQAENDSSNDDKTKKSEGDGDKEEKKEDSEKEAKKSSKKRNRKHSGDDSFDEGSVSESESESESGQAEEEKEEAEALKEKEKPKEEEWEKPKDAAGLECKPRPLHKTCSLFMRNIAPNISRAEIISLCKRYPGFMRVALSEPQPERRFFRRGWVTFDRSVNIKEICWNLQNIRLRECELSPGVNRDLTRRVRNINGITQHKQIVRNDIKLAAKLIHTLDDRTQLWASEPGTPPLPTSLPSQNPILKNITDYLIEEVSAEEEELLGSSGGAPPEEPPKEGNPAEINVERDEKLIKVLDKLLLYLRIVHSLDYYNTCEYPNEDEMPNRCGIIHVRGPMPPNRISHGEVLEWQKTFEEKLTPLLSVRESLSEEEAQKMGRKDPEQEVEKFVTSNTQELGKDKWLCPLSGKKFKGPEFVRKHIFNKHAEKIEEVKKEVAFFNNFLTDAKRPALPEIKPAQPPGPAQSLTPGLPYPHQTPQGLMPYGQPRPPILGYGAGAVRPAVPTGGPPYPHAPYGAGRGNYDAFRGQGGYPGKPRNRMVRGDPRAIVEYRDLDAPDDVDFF

[8] = molecular target: T2, ARS2^147–871; test: SEC; purified proteins mixed, Superdex 200, 120 mM NaCl, 1 mM TCEP, 20 mM HEPES pH 7.8; in the absence of m7GTP; fractions on SDS-PAGE; conditions: both partners purified
[9] = molecular target: T2, ARS2^147–871; test: ITC; MicroCal ITC200, 25 °C, ARS2 constructs with NCBP3 1–282; buffer containing 250 mM NaCl; injections of 2.5 µL; conditions: both partners purified
[10] = molecular target: B3; test: pull-down; purified recombinant NCBP3 constructs immobilised on m7GTP sepharose, incubated with CBP80 and/or wild type or mutant ARS2; eluted fractions on Coomassie-stained SDS-PAGE; conditions: both partners purified

EGFP–ARS2 wt (from UniProt Q9BXP5-4) R854A; R859A; F871A
other: log2 (fold change) [1]: -3.9 | other: log2 (fold change) [2]: -4 | other: log2 (fold change) [3]: -2.6

B1: FARB (FLASH–ARS2-binding region) peptide of FLASH, residues 931–943 (peptide)
peptide: DELEEGEIRSDSE
notes: FLASH (FLICE-associated huge protein), residues 931-943; also called FLASH^931–943; source: synthetic peptide, bought: GeneScript
Kd [4]: 500 nM | Kd [5]: 5.1 µM | Kd [6]: 3.8 µM

B2: FLASH^921–946 peptide (peptide, UniProt Q9UKL3 921-946, looked up)
peptide: EADTCKNSPLDELEEGEIRSDSETSK
notes: FLASH (FLICE-associated huge protein), residues 921-946, holds FARB (931-943); source: synthetic peptide, bought: GeneScript
Kd [5]: 5.5 µM

B3
binding result [7]: binds | binding result [8]: binds

B4: NCBP3^1–282 (domain or fragment, human, UniProt Q53F19-1 1-282, looked up)
chain: MAAVRGLRVSVKAEAPAGPALGLPSPEAESGVDRGEPEPMEVEEGELEIVPVRRSLKELIPDTSRRYENKAGSFITGIDVTSKEAIEKKEQRAKRFHFRSEVNLAQRNVALDRDMMKKAIPKVRLETIYICGVDEMSTQDVFSYFKEYPPAHIEWLDDTSCNVVWLDEMTATRALINMSSLPAQDKIRSRDASEDKSAEKRKKDKQEDSSDDDEAEEGEVEDENSSDVELDTLSQVEEESLLRNDLRPANKLAKGNRLFMRFATKDDKKELGAARRSQYYMK
notes: cloned into pETM11; also called N-terminal region of NCBP3; source: E. coli Rosetta 2, purified; not shown: His6, N-terminal, cleaved
binding result [9]: binds | binding result [7]: binds

B5
binding result [10]: binds

B6: ARS2^147–270+408–763ΔloopB (domain or fragment, human)
chain 1: PVMKTFKEFLLSLDDSVDETEAVKRYNDYKLDFRRQQMQDFFLAHKDEEWFRSKYHPDEVGKRRQEARGALQNRLRVFLSLMETGWFDNLLLDIDKADAIVKMLDAAVIKMEGGTENDLRILEQ
chain 2: GLECKPRPLHKTCSLFMRNIAPNISRAEIISLCKRYPGFMRVALSEPQPERRFFRRGWVTFDRSVNIKEICWNLQNIRLRECELSPGVNRDLTRRVRNINGITQHKQIVRNDIKLAAKLIHTLDDRTQLWASEPGTPPLPTSLPSQNPILKNITDYLIEEGSGSGSERDEKLIKVLDKLLLYLRIVHSLDYYNTCEYPNEDEMPNRCGIIHVRGPMPPNRISHGEVLEWQKTFEEKLTPLLSVRESLSEEEAQKMGRKDPEQEVEKFVTSNTQELGKDKWLCPLSGKKFKGPEFVRKHIFNKHAEKIEEVKKEVAFFNNFLTDAKRPALPE
notes: human ARS2 (SRRT) isoform-e, residues 147-270; human ARS2 (SRRT) isoform-e, from 408 to E567, before the deleted loop B; linker that replaces loop B (568-598); human ARS2 (SRRT) isoform-e, from E599 to 763, after the deleted loop B; the crystallisation methods print ∆566–598GSGSGS; also called ARS2^147–270+408–763Δ568–598 (Δloop B); Human ARS2 147-270+408-763 Δloop B: Δ568–598 E567–GSGSGS–E599; …
binding result [10]: binds
